The values below come from the supplement of paper PMC7877785.

This data set can be described thus: self-splicing fitness, log relative to wild type (ln ratio); higher = more splicing; Tetrahymena group I intron in knt gene, E. coli kanamycin selection, DiMSum; sequences stand for … in CUCUCU…GGAGGGAAAAGUUAUCAGGCAUGCACCUGGUAGCUAGUCUUUAAACCAAUAGAUUGCAUCGGUUUAAAAGGCAAGACCGUCAAAUUGCGGGAAAGGGGUCAACAGCCGUUCAGUACCAAGUCUCAGGGGAAACUUUGAGAUGGCCUUGCAAAGGGUAUGGUAAUAAGCUGACGGACAUGGUCCUAACCACGCAGCCAAGUCCUAAGUCAACAGAUCUUCUGUUGAUAUGGAUGCAGUUCACAGACUAAAUGUCGGUCGGGGAAGAUGUAUUCUUCUCAUAAGAUAUAGUCGGACCUCUCCUUAAUGGGAGCUAGCGGAUGAAGUGAUGCAACACUGGAGCCGCUGGGAACUAAUUUGUAUGCGAAAGUAUAUUGAUUAGUUUUGGAGUACUCGUGGUCG
In a few lines:
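The eight P1ex-region nucleotides of an intron in the knt kanamycin-resistance gene on pET-22b(+) were all randomised and the library put into E. coli BL21(DE3). Six replicate transformations were grown overnight at 37°C or 30°C on LB agar with or without 25 μg/mL kanamycin, together with 100 μg/mL carbenicillin, 50 μM IPTG and 0.2% rhamnose. Colonies were pooled and amplicon-sequenced on an Illumina HiSeq 2500. Fitness from DiMSum is the error-weighted combination of wild-type-normalised replicate fold changes, kanamycin over none.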

± gives the uncertainty stated by the source.

With GAGCAGCAAUAUUACGUUGU, the “self-splicing fitness (ln)” value is -3.37 ± 0.14 (30 °C) and -2.16 ± 0.15 (37 °C).

For GAGCAGCAAUAUUACGUUUC, the “self-splicing fitness (ln)” value reads like this: (30 °C) -3.37 ± 0.14; (37 °C) -2.2 ± 0.22. For GAGGAGCAAUAUUACGAAGA the same measures were -2.19 ± 0.24 and -1.95 ± 0.32. As to GAGGAGCAAUAUUACGACCU, the “self-splicing fitness (ln)” value (30 °C) is -2.45 ± 0.41. In the case of GAGGAGCAAUAUUACGAUCC, the “self-splicing fitness (ln)” value reads like this: (30 °C) -1.49 ± 0.31; (37 °C) -1.12 ± 0.27.

As to GAGGAGCAAUAUUACGCCAA, the “self-splicing fitness (ln)” value (37 °C) is -1.6 ± 0.48. As to GAGGAGCAAUAUUACGCCAU, the “self-splicing fitness (ln)” value (30 °C) is -3.46 ± 0.47 and the “self-splicing fitness (ln)” value (37 °C) was -2.37 ± 0.41. For GAGGAGCAAUAUUACGCCUA, in that order: -1.68 ± 0.27 and -0.955 ± 0.16. With GAGGAGCAAUAUUACGCGUU, the “self-splicing fitness (ln)” value by setting is: (30 °C) -3.99 ± 0.39; (37 °C) -2.2 ± 0.36. As for GAGGAGCAAUAUUACGCUCC, the “self-splicing fitness (ln)” value (37 °C) is -0.714 ± 0.48.

Turning to GAGGAGCAAUAUUACGCUGA, the “self-splicing fitness (ln)” value is, setting by setting: (30 °C) -2.84 ± 0.49; (37 °C) -2.07 ± 0.34. For the sequence GAGGAGCAAUAUUACGGACG, the “self-splicing fitness (ln)” value is, setting by setting: (30 °C) -3.42 ± 0.36; (37 °C) -0.785 ± 0.49.

With GAGGAGCAAUAUUACGGACU, the “self-splicing fitness (ln)” value is -1.49 ± 0.14 (30 °C) and -1.22 ± 0.28 (37 °C). As to GAGGAGCAAUAUUACGGAGU, the “self-splicing fitness (ln)” value (37 °C) is -2.57 ± 0.34. As for GAGGAGCAAUAUUACGGAUG, the “self-splicing fitness (ln)” value reads like this: (30 °C) -3.77 ± 0.27; (37 °C) -2.48 ± 0.24.

On to GAGGAGCAAUAUUACGGGCC, for which the “self-splicing fitness (ln)” value (30 °C) is -2.4 ± 0.4.

Turning to GAGGAGCAAUAUUACGUACA, the “self-splicing fitness (ln)” value runs as follows: (30 °C) -3.14 ± 0.32; (37 °C) -0.612 ± 0.2. For GAGGAGCAAUAUUACGUGCA the same measures were -3.41 ± 0.34 and -1.31 ± 0.17. For GAGGAGCAAUAUUACGUGCU, in that order: -4.62 ± 0.42 and -2.32 ± 0.21. GAGGAGCAAUAUUACGUUCG: the “self-splicing fitness (ln)” value reads like this: (30 °C) -1.89 ± 0.2; (37 °C) -1.27 ± 0.23. For GAGGAGCAAUAUUACGUUCU the same measures were -2.2 ± 0.2 and -2.4 ± 0.33. For the sequence GAGGAGCAAUAUUACGUUGG, the “self-splicing fitness (ln)” value (37 °C) was -1.46 ± 0.42.

Consider GAGUAGCAAUAUUACGACGC, for which the “self-splicing fitness (ln)” value is -0.488 ± 0.12 (30 °C) and 0.137 ± 0.14 (37 °C). For GAGUAGCAAUAUUACGAGCA, in that order: -2.06 ± 0.21 and 0.532 ± 0.14. Turning to GAGUAGCAAUAUUACGAGGC, the “self-splicing fitness (ln)” value (37 °C) was -2.86 ± 0.44. As for GAGUAGCAAUAUUACGAUAC, the “self-splicing fitness (ln)” value was -2.31 ± 0.21 (30 °C) and -2.92 ± 0.24 (37 °C). For GAGUAGCAAUAUUACGCAGA the same measures were -3 ± 0.26 and -2.41 ± 0.31. For GAGUAGCAAUAUUACGCCGC the same measures were -2.89 ± 0.25 and -1.29 ± 0.33. Take GAGUAGCAAUAUUACGCCGG: under “30 °C”, the “self-splicing fitness (ln)” value was -1.99 ± 0.35.

Turning to GAGUAGCAAUAUUACGCCGU, the “self-splicing fitness (ln)” value (37 °C) is -1.08 ± 0.27.

With GAGUAGCAAUAUUACGCGAU, the “self-splicing fitness (ln)” value was -2.26 ± 0.21 (30 °C) and -2.21 ± 0.39 (37 °C). Regarding GAGUAGCAAUAUUACGCGCA, the “self-splicing fitness (ln)” value reads like this: (30 °C) -1.93 ± 0.15; (37 °C) -0.701 ± 0.2. For GAGUAGCAAUAUUACGCGUU, in that order: -2.44 ± 0.095 and -0.8 ± 0.09. GAGUAGCAAUAUUACGGAAA: the “self-splicing fitness (ln)” value is -3.15 ± 0.17 (30 °C) and -2.03 ± 0.12 (37 °C). For GAGUAGCAAUAUUACGGAUC, in that order: -0.928 ± 0.092 and -0.167 ± 0.12. For GAGUAGCAAUAUUACGGCCA the same measures were -1.95 ± 0.18 and 0.281 ± 0.26. Take GAGUAGCAAUAUUACGGCCG: the “self-splicing fitness (ln)” value is -1.24 ± 0.15 (30 °C) and -0.0588 ± 0.23 (37 °C). For GAGUAGCAAUAUUACGGCGG the same measures were -4.56 ± 0.36 and -2.02 ± 0.21. For GAGUAGCAAUAUUACGGUAC the same measures were -2.69 ± 0.37 and -2.01 ± 0.33. For GAGUAGCAAUAUUACGGUCU, in that order: -1.24 ± 0.15 and -1.22 ± 0.17. With GAGUAGCAAUAUUACGGUUA, the “self-splicing fitness (ln)” value is -0.885 ± 0.14 (30 °C) and -0.497 ± 0.099 (37 °C). For GAGUAGCAAUAUUACGGUUU the same measures were -0.669 ± 0.092 and -0.275 ± 0.091. Turning to GAGUAGCAAUAUUACGUACU, the “self-splicing fitness (ln)” value reads like this: (30 °C) -2.67 ± 0.15; (37 °C) -1.67 ± 0.16. With GAGUAGCAAUAUUACGUAUG, the “self-splicing fitness (ln)” value was -2.85 ± 0.13 (30 °C) and -2.51 ± 0.19 (37 °C).

For GAGUAGCAAUAUUACGUCGU, the “self-splicing fitness (ln)” value (30 °C) was -3.35 ± 0.29 and the “self-splicing fitness (ln)” value (37 °C) is -0.572 ± 0.2.

As for GAGUAGCAAUAUUACGUCUA, the “self-splicing fitness (ln)” value reads like this: (30 °C) -0.203 ± 0.099; (37 °C) -0.00603 ± 0.14.

As for GAGUAGCAAUAUUACGUGCU, the “self-splicing fitness (ln)” value (30 °C) was -3.42 ± 0.19 and the “self-splicing fitness (ln)” value (37 °C) was -2.31 ± 0.2. As to GAGUAGCAAUAUUACGUUGU, the “self-splicing fitness (ln)” value was -2.19 ± 0.17 (30 °C) and -1.41 ± 0.16 (37 °C). As for GAGUAGCAAUAUUACGUUUG, the “self-splicing fitness (ln)” value is -3.89 ± 0.16 (30 °C) and -3.88 ± 0.24 (37 °C). With GAUAAGCAAUAUUACGACCU, the “self-splicing fitness (ln)” value (30 °C) is -0.864 ± 0.086 and the “self-splicing fitness (ln)” value (37 °C) was 0.36 ± 0.1. For GAUAAGCAAUAUUACGAUAC the same measures were -1.52 ± 0.18 and -1.63 ± 0.27.

For the sequence GAUAAGCAAUAUUACGAUUA, the “self-splicing fitness (ln)” value runs as follows: (30 °C) -0.905 ± 0.12; (37 °C) 0.0831 ± 0.12. For GAUAAGCAAUAUUACGCAUA, in that order: -0.919 ± 0.13 and -0.783 ± 0.18.

Consider GAUAAGCAAUAUUACGCCCU, for which the “self-splicing fitness (ln)” value is, setting by setting: (30 °C) -0.569 ± 0.13; (37 °C) 0.292 ± 0.15.

As for GAUAAGCAAUAUUACGCCUC, for the setting “37 °C”, the “self-splicing fitness (ln)” value is -2.35 ± 0.42.

With GAUAAGCAAUAUUACGCUAU, the “self-splicing fitness (ln)” value was -2.91 ± 0.26 (30 °C) and -1.01 ± 0.29 (37 °C). In the case of GAUAAGCAAUAUUACGCUCC, the “self-splicing fitness (ln)” value (30 °C) is -1.82 ± 0.34.

As to GAUAAGCAAUAUUACGCUGA, where the note is “37 °C”, the “self-splicing fitness (ln)” value was -1.31 ± 0.22. As for GAUAAGCAAUAUUACGGCGA, the “self-splicing fitness (ln)” value (30 °C) is -0.337 ± 0.12 and the “self-splicing fitness (ln)” value (37 °C) was determined as 0.114 ± 0.13. Consider GAUAAGCAAUAUUACGGCGC, for which the “self-splicing fitness (ln)” value by setting is: (30 °C) 0.0448 ± 0.13; (37 °C) -0.881 ± 0.13. For GAUAAGCAAUAUUACGGGCA the same measures were -1.65 ± 0.12 and -0.177 ± 0.13. As to GAUAAGCAAUAUUACGUGAC, the “self-splicing fitness (ln)” value by setting is: (30 °C) -2.55 ± 0.32; (37 °C) -0.818 ± 0.3. For GAUAAGCAAUAUUACGUGAG the same measures were -2.14 ± 0.096 and -0.113 ± 0.099.

On to GAUAAGCAAUAUUACGUUAA, for which the “self-splicing fitness (ln)” value is, setting by setting: (30 °C) -3.91 ± 0.43; (37 °C) -1.52 ± 0.17. With GAUAAGCAAUAUUACGUUCG, the “self-splicing fitness (ln)” value was -1.42 ± 0.098 (30 °C) and -1.05 ± 0.14 (37 °C).

As to GAUAAGCAAUAUUACGUUGU, the “self-splicing fitness (ln)” value is -2.12 ± 0.089 (30 °C) and -2.6 ± 0.11 (37 °C). Turning to GAUAAGCAAUAUUACGUUUU, the “self-splicing fitness (ln)” value is -2.39 ± 0.098 (30 °C) and -1.48 ± 0.1 (37 °C). For GAUCAGCAAUAUUACGAACG the same measures were -0.118 ± 0.16 and 0.507 ± 0.17. For GAUCAGCAAUAUUACGACAG the same measures were -3.24 ± 0.23 and -1.49 ± 0.28.

In the case of GAUCAGCAAUAUUACGACUC, the “self-splicing fitness (ln)” value (30 °C) is -0.0915 ± 0.14 and the “self-splicing fitness (ln)” value (37 °C) is -0.146 ± 0.15. For GAUCAGCAAUAUUACGAGAA the same measures were -1.89 ± 0.17 and -1.16 ± 0.14. For GAUCAGCAAUAUUACGAGCC the same measures were -0.966 ± 0.074 and -1.1 ± 0.093. For GAUCAGCAAUAUUACGAGCU the same measures were -1.42 ± 0.15 and -0.233 ± 0.15. As to GAUCAGCAAUAUUACGAGGC, the “self-splicing fitness (ln)” value (37 °C) is -1.92 ± 0.23. Take GAUCAGCAAUAUUACGAGGU: the “self-splicing fitness (ln)” value was -2.98 ± 0.24 (30 °C) and -2.84 ± 0.22 (37 °C). For GAUCAGCAAUAUUACGAGUC the same measures were -3.31 ± 0.29 and -0.73 ± 0.16. For GAUCAGCAAUAUUACGAUCU the same measures were -4.13 ± 0.42 and -1.8 ± 0.26. For GAUCAGCAAUAUUACGCAAU the same measures were -1.56 ± 0.1 and 0.129 ± 0.11. Turning to GAUCAGCAAUAUUACGCAUG, the “self-splicing fitness (ln)” value is -0.141 ± 0.095 (30 °C) and 0.865 ± 0.14 (37 °C).
